The subject of data set [1] is T1, SF370.1 recombinase (Streptococcus pyogenes phage SF370.1).
T1 sequence: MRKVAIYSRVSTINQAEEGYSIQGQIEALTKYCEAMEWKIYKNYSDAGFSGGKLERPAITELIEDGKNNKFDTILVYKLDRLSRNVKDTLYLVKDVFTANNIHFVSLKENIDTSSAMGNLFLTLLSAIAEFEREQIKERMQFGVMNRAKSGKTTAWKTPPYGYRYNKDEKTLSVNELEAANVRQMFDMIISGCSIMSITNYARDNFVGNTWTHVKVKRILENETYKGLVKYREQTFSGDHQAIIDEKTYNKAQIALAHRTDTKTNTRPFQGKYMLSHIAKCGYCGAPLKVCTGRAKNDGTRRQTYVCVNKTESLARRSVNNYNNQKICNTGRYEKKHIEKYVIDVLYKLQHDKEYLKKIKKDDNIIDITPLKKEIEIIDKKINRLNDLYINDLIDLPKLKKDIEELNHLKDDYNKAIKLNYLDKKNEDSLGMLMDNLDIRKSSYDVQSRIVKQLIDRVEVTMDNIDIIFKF
In words: cell_activity. The settings on record: integration of attP (N3) plasmid at pseudo attB; 9 clones without recombinase; 35 of 100 rescued at this site.

The target of data set [2] is T2, SPβc2 recombinase (yokA) (Bacillus subtilis phage SPβc2) (UniProt O32006).
T2 sequence: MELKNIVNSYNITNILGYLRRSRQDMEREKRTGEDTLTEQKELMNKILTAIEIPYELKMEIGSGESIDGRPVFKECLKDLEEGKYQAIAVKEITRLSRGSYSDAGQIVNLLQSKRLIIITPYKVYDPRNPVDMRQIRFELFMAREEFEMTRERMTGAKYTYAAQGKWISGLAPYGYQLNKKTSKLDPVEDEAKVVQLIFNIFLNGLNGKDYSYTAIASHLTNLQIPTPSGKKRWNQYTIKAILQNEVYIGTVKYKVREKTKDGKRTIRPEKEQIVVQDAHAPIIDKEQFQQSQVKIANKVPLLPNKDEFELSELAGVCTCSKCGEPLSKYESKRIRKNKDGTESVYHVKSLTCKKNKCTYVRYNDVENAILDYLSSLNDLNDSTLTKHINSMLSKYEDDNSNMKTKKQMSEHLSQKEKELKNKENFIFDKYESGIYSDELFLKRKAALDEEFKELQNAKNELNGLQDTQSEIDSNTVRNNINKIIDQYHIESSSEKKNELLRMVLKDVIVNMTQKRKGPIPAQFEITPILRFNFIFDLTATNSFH
The data set can be described thus: cell_activity. Particulars: integration of attP (N1) plasmid at pseudo attB; 0 clones without recombinase; 15 integrations at this site.

For the substance SF370.1 human pseudo attB, in data set [1], the activity (hygromycinR clones) is > 100. On to SPβc2 human pseudo attB, for which the activity (hygromycinR clones) in data set [2] was > 100.

The values above are taken from patent US20060172377.
